Reference: US20070111260A1

Key:
[1] = biological target: FcγRIIIA-streptavidin fusion protein (human; Streptomyces avidinii) (UniProt P08637); experiment: ELISA: antibody captured on protein A/G, FcγRIIIA-streptavidin (1:1000), biotin-HRP; the text speaks of IC50 values
[2] = biological target: FcγRI and FcγRII on THP-1 cells; experiment: flow cytometry, antibody on THP-1 cells, FITC anti-human IgG Fab
[3] = biological target: human C1q (Quidel) (human) (UniProt P02745); experiment: ELISA: antibody captured on protein A/G, human C1q 2 ug/ml, anti-C1q detection
human C1q (Quidel) (human), sequence (P02745 23-245, chain 1 of 3): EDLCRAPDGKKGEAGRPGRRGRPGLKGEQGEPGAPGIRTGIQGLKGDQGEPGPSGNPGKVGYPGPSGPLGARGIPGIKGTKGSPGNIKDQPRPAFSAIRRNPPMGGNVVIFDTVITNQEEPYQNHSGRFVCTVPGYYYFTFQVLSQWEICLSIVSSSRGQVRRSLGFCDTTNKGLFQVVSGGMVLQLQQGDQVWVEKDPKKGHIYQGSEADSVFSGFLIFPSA
human C1q (Quidel) (human), sequence (P02746 28-253, chain 2 of 3, further chain): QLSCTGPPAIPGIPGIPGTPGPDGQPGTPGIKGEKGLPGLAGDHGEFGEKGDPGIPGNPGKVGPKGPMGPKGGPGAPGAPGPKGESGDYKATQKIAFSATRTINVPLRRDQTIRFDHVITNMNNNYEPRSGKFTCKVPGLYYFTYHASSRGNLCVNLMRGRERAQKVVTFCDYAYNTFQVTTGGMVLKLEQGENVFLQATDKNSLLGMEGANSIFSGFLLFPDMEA
human C1q (Quidel) (human), sequence (P02747 29-245, chain 3 of 3, further chain): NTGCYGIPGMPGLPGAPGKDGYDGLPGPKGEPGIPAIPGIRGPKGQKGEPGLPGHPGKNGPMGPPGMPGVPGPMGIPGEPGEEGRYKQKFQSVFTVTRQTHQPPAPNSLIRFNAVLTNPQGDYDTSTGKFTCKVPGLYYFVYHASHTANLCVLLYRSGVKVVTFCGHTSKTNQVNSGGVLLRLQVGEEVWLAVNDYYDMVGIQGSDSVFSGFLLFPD

FcγRIIIA-streptavidin fusion protein (human; Streptomyces avidinii), sequence (P08637 17-208 limits assumed): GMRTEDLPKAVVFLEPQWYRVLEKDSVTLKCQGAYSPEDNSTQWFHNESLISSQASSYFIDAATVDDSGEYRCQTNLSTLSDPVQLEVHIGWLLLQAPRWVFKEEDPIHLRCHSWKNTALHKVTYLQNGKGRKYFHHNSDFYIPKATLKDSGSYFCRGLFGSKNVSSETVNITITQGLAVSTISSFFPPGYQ

Substance | FcγRIIIA Binding [1] | FcγRI&II Binding (fold less, against wild type) [2] | C1q binding (fold less, against wild type) [3]
12G3H11 anti-EphA2 antibody Fc variant InE240/241 (soluble) (from UniProt P01857 1-330) | 4.93 µg/mL |  | 
12G3H11 anti-EphA2 antibody Fc variant K246R/L251E/T260R (soluble) |  | 9 fold | 2 fold
12G3H11 anti-EphA2 antibody Fc variant W277T (soluble) | 0.5 µg/mL |  | 
